Measurements reported in patent publication US20210188990A1 (published 2021).
Substitutions are numbered along the chain they refer to.

B1: SEQ ID NO 53: stapled scFv (VL3 Y36F_S49Y_F87Y) BHA10 (VH-VL), lower affinity variant (scFv)
scFv: QVQLVQSGAEVKKPGSSVKVSCKASGYTFTTYYLHWVRQAPGCGLEWMGWIYPGNVHAQYNEKFKGRVTITADKSTSTAYMELSSLRSEDTAVYYCARSWEGFPYWGQGTTVTVSSGGGSGGGSGCPPCGGGGDIQMTQSPSSLSASVGDRVTITCKASQNVGINVAWFQQKPGKAPKSLIYSASYRYSGVPSRFSGSGSGTDFTLTISSLQPEDFATYYCQQYDTYPFTFGCGTKVEIK
notes: scFv used in COVA14107
B2: SEQ ID NO 54: stapled scFv (VH_CDR1_Y33A) BHA10 (VH-VL), lower affinity variant (scFv)
scFv: B1 scFv with Y33A, F169Y, Y182S, Y220F
notes: scFv used in COVA14108

Biological target: LTBR (form used for the KD values not stated) (human, UniProt P36941 31-227, limits assumed)
Test: method and format not stated

Sequence of LTBR (form used for the KD values not stated) (P36941 31-227 limits assumed): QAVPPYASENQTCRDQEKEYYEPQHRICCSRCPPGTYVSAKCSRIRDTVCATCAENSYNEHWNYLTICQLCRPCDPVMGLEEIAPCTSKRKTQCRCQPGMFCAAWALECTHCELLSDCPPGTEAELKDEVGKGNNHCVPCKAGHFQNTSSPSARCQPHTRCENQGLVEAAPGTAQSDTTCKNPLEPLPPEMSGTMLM

| Binder | Kd |
| --- | --- |
| B1 | ~60 nM |
| B2 | ~600 nM |
